Earlier results in article PMC7717565, “Structure of the Lifeact–F-actin complex” (PLoS Biology, 2020).

Target: F-actin (Oryctolagus cuniculus) (UniProt P68135)

- Kd: 13.2 µM
Substance: Lifeact Lifeact (from UniProt Q08641)
